This is an account of results in article PMC8877407.

For this assay, the target named is recombinant L. infantum GDP-mannose pyrophosphorylase (LiGDP-MP) (Leishmania infantum). Nature of the assay: SEC; Superdex 200 10/300 GL, 50 mM Tris-HCl pH 7.5, 1 M NaCl, 1 mM DTT, 10% glycerol; concentrated Ni-NTA fractions loaded; sizes estimated from elution volumes against standard proteins.

Where “and” joins values, the source holds several entries; their conditions need not be identical. Equal values may be shown once.

By stoichiometry N is commonly meant a count of units in the complex or per binding partner. “recombinant L. infantum GDP-mannose pyrophosphorylase (LiGDP-MP) (enzyme)”: the stoichiometry N was 6 and 3.
